The source of these data is patent publication US20050027104A1.

Assay [1] has as its target human IgD (probe or solid phase; preparation not specified at the place) (human) (UniProt P01880). The assay is described as follows: SDS-PAGE and Western blot with IgD after 60 C treatment, densitometry, 6 experiments; reference: monomeric MID962-1200.
Assay [2] has as its target One of the two myelomas (purified IgD(κ) or IgD(λ); which one is not stated). The assay is described as follows: dot blot, purified MID in dilutions on membrane, IgD myeloma protein as probe.
Assay [3] deals with surface-expressed B cell receptor (BCR) IgD on human CD19+ peripheral blood lymphocytes (human) (UniProt P01880). The assay is described as follows: flow cytometry, MID-FITC on PBLs incubated with the pre-immune serum (no blocking).
Assay [4] shares this target. The assay is described as follows: flow cytometry, MID-FITC on PBLs preincubated with rabbit anti-human IgD immunoglobulin fraction (competitor).

UniProt P01880, sequence (P01880 whole entry): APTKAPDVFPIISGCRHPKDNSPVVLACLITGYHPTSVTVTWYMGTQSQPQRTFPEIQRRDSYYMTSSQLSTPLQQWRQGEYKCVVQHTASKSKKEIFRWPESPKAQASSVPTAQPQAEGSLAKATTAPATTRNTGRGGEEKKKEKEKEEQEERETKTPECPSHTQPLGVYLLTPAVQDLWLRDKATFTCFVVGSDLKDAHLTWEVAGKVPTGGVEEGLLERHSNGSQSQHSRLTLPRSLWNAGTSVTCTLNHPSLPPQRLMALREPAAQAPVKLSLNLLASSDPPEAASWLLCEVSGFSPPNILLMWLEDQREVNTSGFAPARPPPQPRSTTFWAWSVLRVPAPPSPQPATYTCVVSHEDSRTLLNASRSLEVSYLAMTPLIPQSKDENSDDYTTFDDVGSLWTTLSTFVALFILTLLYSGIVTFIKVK

As to MID962-1200 (F2), tetrameric form, the fold more efficient binding to IgD than the monomeric form in assay [1] came out at 23 fold.
Substance “MID, IgD-binding surface exposed protein purified from Moraxella catarrhalis strain Bc5 (native full length MID1-2139)” registered a least amount of MID detected on the membrane in assay [2] of 0.001 µg. Further, the Mean fluorescence intensity (arbitrary units) stood at 79.2 in assay [3] and 14.6 in assay [4].
